Laboratory results as given in patent US20080207488A1, “Method for Detecting Peptides Comprising a Cross-B Structure” (priority 2005, published 2008).
One block for each molecule: values may come before it. Peptide text beside a SMILES is read from it.

Key:
[1] = Thioflavin T fluorescence; format: physicochemical; settings: 25 μg ml^−1
Method: Fluorescence of ThT-protein/peptide adducts was measured as follows. […] Fluorescence was measured at 485 nm upon excitation at 435 nm. Background signals from buffer, buffer with ThT and protein/peptide solution without ThT were subtracted from corresponding measurements with protein solution incubated with ThT. […] Fluorescence was measured in triplicate on a Hitachi F-4500 fluorescence spectrophotometer (Ltd., Tokyo, Japan).
(§1) Formulated protein therapeutics were obtained from the local hospital pharmacy and were used as supplied by the manufacturers. […] Lyophilized therapeutics were dissolved according to the manufacturers recommendations. […] Other protein therapeutics were only kept at 4° C., and assayed for the presence of cross-β structure conformation at shown time points. Enhancement in fluorescence of ThT and Congo red was measured with all formulated protein therapeutics. For this purpose, proteins were diluted to the indicated concentrations. […] Zinc-insulin was diluted tenfold in the activation assay, GH was diluted to a final concentration of 500 μg ml^−1. Activation of factor XII and prekallikrein by the therapeutics was tested in the chromogenic factor XII assay (see above). […] After coating, plates were blocked with Blocking Reagent (Roche Diagnostics, Almere, The Netherlands).
To prepare structurally altered ovalbumin (OVA) with amyloid cross-β structure conformation, purified OVA (Sigma, A-7641, lot 071k7094) was heated to 85° C. One mg ml^−1 OVA in 67 mM NaPi buffer pH 7.0, 100 mM NaCl, was heated for two cycles in PCR cups in a PTC-200 thermal cycler (MJ Research, Inc., Waltham, Mass., USA). In each cycle, OVA was heated from 30 to 85° C. at a rate of 5° C./min. Native OVA (nOVA) and heat-denatured OVA (dOVA) were tested in the ThT fluorescence assay and in the Plg-activation assay. In the fluorescence assay and in the Plg-activation assay, 25 and 100 μg ml^−1 nOVA and dOVA were tested, respectively. TEM images of nOVA and dOVA were taken to check for the presence of large aggregates. […] MSA (#126674, Calbiochem) was dissolved in 8 M urea, 100 mM Tris-HCl pH 8.2, at 10 mg ml^−1 final concentration. Dithiothreitol (DTT) was added to a final concentration of 10 mM. Air was replaced by N2 and the solution was incubated for 2 h at room temperature. Then, the solution was transferred to ice and iodoacetamide was added from a 1 M stock to a final concentration of 20 mM. […] Alkyl-MSA was dialyzed against H2O before use. […] In the ThT-fluorescence assay 25 μg ml^−1 nMSA and alkyl-MSA were tested, and in the Plg-activation assay 100 μg ml^−1 was tested. The presence of aggregates or fibrils was analyzed using TEM. […]
Protein therapeutics were obtained from the local hospital pharmacy and analyzed within the expiry limits as stated by the manufacturers.

[2] = target: T1, tPA (Homo sapiens, UniProt P00750); assay: Plasminogen-activation assay (tPA-mediated Plg to Pls, S-2251); format: biochemical; settings: FIG. 6E, G
T1 construct: purchased Boehringer-Ingelheim (Actilyse, Alteplase)
Method: (§2) Plasmin (Pls) activity was assayed as described^7. Peptides and proteins that were tested for their stimulatory ability were regularly used at 100 μg ml^−1. […] Chromogenic substrate S-2251 (Chromogenix, Instrumentation Laboratory SpA, Milano, Italy) was used to measure Pls activity. Conversion of zymogen factor XII (#233490, Calbiochem, EMD Biosciences, Inc., San Diego, Calif.) to proteolytically active factor XII (factor XIIa) was assayed by measurement of the conversion of chromogenic substrate Chromozym-PK (Roche Diagnostics, Almere, The Netherlands) by kallikrein. Chromozym-PK was used at a concentration of 0.3 mM. Factor XII, human plasma prekallikrein (#529583, Calbiochem) and human plasma cofactor high-molecular weight kininogen (#422686, Calbiochem) were used at concentrations of 1 μg ml^−1. […] Assays were performed using microtiter plates (Costar, Cambridge, Mass., USA). Peptides and proteins were tested for their ability to activate factor XII. 150 μg ml^−1 kaolin, an established activator of factor XII was used as positive control and solvent (H2O) as negative control. The conversion of Chromozym-PK was recorded kinetically at 37° C. for at least 60 minutes. Assays were done in duplicate. […] Alternatively, chromogenic substrate S-2222 (Chromogenix) was used to follow the activity of factor XII itself. With S-2222, activation of factor XII in plasma was measured, using 60% v/v plasma, diluted with substrate and H2O with or without potential cofactor. Furthermore, auto-activation of factor XII was measured by incubating 53 μg ml^−1 purified factor XII in 50 mM Tris-HCl buffer pH 7.5 with 1 mM EDTA and 0.001% v/v Triton-X100, with S-2222 and H2O with or without potential cofactor.
as §1
Purification of β2-glycoprotein I (β2GPI) was performed according to established methods^11,12. Recombinant human β2GPI was made using insect cells and purified as described^11. Plasma derived β2GPI as used in a factor XII ELISA, the chromogenic Plg-activation assay and in the anti-phospholipid syndrome antibody ELISA (see below), was purified from fresh human plasma as described^12.
To prepare structurally altered ovalbumin (OVA) with amyloid cross-β structure conformation, purified OVA (Sigma, A-7641, lot 071k7094) was heated to 85° C. One mg ml^−1 OVA in 67 mM NaPi buffer pH 7.0, 100 mM NaCl, was heated for two cycles in PCR cups in a PTC-200 thermal cycler (MJ Research, Inc., Waltham, Mass., USA). In each cycle, OVA was heated from 30 to 85° C. at a rate of 5° C./min. Native OVA (nOVA) and heat-denatured OVA (dOVA) were tested in the ThT fluorescence assay and in the Plg-activation assay. In the fluorescence assay and in the Plg-activation assay, 25 and 100 μg ml^−1 nOVA and dOVA were tested, respectively. TEM images of nOVA and dOVA were taken to check for the presence of large aggregates. […] MSA (#126674, Calbiochem) was dissolved in 8 M urea, 100 mM Tris-HCl pH 8.2, at 10 mg ml^−1 final concentration.

[3] = target: T2, factor XII (Homo sapiens, UniProt P00748); assay: Chromogenic factor XII/prekallikrein activation assay (Chromozym-PK); format: biochemical; settings: peptide aggregates and surfaces
T2 construct: purchased Calbiochem, EMD Biosciences #233490
T2 sequence (P00748 20-615): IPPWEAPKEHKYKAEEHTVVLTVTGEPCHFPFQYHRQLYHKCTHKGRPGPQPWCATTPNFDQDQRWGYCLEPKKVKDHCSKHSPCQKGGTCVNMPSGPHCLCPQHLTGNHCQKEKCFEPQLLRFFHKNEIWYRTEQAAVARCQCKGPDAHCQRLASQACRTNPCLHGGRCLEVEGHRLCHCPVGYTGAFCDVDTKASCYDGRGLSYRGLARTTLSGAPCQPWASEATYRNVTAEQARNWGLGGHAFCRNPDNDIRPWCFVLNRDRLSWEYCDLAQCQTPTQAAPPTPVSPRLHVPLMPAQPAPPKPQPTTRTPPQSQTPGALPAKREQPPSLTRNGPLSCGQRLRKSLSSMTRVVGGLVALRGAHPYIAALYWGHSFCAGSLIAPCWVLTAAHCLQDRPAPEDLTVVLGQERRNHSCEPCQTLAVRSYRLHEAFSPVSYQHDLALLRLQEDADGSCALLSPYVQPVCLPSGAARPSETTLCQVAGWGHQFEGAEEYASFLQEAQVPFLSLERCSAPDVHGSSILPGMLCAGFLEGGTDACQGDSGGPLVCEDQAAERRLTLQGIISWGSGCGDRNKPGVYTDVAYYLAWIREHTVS
Method: as §2, §1

[4] = target: T3, human BiP (Homo sapiens, UniProt P11021); assay: ELISA, binding of BiP to coated (mis)folded proteins; settings: coated protein
T3 construct: made in house; host or cells: HEK293E cells, transient transfection, protein purified from the medium
Method: (§3) The plates were blocked using Blocking reagent (Roche 1112589). A dilution series of the protein of interest was applied to the coated proteins and wells were subsequently washed using TBS-T (50 mM Tris pH 7.3, 150 mM NaCl and 0.1% Tween20). Bound protein is detected by the FLAG-tag using 1:3000 anti-FLAG-HRP (Sigma A-8592) in PBS-T, or by 1:1000 Ni-NTA-HRP (Qiagen 34530) in PBS-T. The HRP reaction Is performed using the TMB substrate (Biosource 4501103 or Tebu Bio 101TMB100-500), stopped using 10% H2SO4 and absorbance was measured at 450 nm.

[5] = target: T4, LRP cl-IV binding to BSA-AGE (Bos taurus, UniProt P02769); assay: ELISA, interference with LRP cl-IV binding to BSA-AGE; parameters: species or system human; settings: concentration series, 50 times diluted LRP cl-IV medium
T4 construct: made in house; host or cells: LRP cl-IV: HEK293E/S culture supernatant, 50 times diluted; BSA-AGE: glycated in house and coated
Method: To test whether amyloid-like crossbeta structure binding compounds tPA, Congo red, Thioflavin T and Thioflavin S interfere with LRP cl-IV binding to BSA-AGE, concentration series of the potential inhibitory amyloid binding moieties were tested in the presence of 50 times diluted medium containing LRP cl-IV. The following inhibitors were used: tPA, Congo red, Thioflavin T (ThT) and Thioflavin S (ThS). As a control to tPA, K2P tPA, which lacks the amyloid-like misfolded protein binding finger domain, was included in the analyses. The influence of tPA and K2P tPA was tested in the presence of 10 mM ε-amino caproic acid to avoid binding of the kringle2 domain of tPA and K2P tPA to lysine- and arginine residues. Binding buffer and K2P tPA served as negative controls in these inhibition studies. The concentration series was measured in triplicate, the values averaged and standard deviations calculated. Background signals obtained with buffer-coated wells were subtracted. Signals obtained with binding of LRP cluster IV to BSA-AGE was set arbitrarily to a reference binding of 100% and signals obtained with the concentration series of misfolded protein binding moieties and K2P tPA were calculated based on this set reference.

[6] = target: T5, human fibronectin finger 4,5 (Fn F4,5) fragment (Homo sapiens, UniProt P02751); assay: ELISA, binding of fibronectin F4,5 to coated (mis)folded proteins; settings: coated protein, FIG. 7D-H
T5 construct: human fibronectin finger 4,5 (Fn F4,5) fragment; made in house; host or cells: HEK293E cells, transient transfection, protein purified from the medium
Method: as §3

T4 sequence (P02769 25-607): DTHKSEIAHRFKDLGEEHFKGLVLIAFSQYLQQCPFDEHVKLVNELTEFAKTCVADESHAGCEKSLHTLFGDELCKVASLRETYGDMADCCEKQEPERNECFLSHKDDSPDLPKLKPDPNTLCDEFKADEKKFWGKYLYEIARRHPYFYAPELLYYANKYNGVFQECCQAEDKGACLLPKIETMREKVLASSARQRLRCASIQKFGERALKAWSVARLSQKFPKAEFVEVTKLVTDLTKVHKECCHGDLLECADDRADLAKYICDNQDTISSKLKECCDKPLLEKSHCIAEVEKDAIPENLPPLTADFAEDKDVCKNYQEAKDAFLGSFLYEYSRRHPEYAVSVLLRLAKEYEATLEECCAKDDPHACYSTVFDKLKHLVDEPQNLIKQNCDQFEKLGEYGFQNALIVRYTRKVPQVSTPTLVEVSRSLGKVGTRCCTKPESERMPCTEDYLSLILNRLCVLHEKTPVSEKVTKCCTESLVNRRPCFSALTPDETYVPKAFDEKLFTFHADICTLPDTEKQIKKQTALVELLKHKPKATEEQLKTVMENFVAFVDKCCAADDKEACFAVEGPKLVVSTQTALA
T3 sequence (P11021 19-654): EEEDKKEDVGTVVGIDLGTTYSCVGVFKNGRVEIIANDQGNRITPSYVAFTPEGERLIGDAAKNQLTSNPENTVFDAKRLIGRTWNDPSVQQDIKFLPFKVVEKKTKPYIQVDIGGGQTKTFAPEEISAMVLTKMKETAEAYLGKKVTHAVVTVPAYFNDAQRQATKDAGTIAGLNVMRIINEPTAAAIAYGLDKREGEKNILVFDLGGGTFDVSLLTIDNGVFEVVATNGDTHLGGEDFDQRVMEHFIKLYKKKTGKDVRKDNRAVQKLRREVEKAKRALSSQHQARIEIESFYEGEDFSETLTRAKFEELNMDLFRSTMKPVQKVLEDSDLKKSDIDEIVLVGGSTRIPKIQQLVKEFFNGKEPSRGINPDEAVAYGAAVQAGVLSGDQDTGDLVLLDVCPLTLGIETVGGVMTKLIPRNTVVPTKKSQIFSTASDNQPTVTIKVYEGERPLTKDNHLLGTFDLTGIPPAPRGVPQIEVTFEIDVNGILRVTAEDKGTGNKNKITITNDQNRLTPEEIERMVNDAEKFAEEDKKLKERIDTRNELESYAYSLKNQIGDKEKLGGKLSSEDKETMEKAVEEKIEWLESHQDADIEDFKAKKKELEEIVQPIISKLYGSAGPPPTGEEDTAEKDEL
T5 sequence (P02751 182-276 limits assumed): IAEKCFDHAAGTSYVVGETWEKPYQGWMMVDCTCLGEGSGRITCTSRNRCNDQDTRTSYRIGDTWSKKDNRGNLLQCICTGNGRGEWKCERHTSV
T1 sequence (P00750 36-562): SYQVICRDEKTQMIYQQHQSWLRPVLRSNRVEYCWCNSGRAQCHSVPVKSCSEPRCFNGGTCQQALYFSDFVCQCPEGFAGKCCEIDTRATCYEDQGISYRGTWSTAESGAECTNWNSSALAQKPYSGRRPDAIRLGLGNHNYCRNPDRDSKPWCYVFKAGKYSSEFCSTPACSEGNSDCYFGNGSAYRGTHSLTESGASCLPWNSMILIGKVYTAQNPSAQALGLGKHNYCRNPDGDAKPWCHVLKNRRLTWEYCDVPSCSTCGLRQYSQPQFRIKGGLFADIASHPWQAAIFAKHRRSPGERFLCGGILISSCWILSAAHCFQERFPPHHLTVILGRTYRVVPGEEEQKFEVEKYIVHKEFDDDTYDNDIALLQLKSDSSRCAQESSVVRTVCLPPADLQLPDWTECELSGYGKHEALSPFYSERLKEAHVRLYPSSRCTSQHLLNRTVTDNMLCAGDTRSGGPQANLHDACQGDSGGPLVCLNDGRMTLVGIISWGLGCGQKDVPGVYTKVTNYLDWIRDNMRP

Molecule: heat-denatured glucagon: glucagon kept at 37° C. at low pH in HCl
- ThT fluorescence enhancement of native and denatured proteins [1]: enhanced ThT fluorescence to a large extent
- tPA activating potential of native and denatured glucagon and Etanercept [2]: potent activator of tPA

Molecule: heat-denatured BSA: heat-denatured bovine serum albumin
- binding of BiP (detection anti-FLAG-HRP) [4]: not

Molecule: Thioflavin S [ThS]
- influence on binding of LRP cl-IV to BSA-AGE [5]: inhibit binding of LRP cl-IV to BSA-AGE to a large extent

Molecule: Cc1ccc2c(c1)sc(-c1ccc(N(C)C)cc1)[n+]2C [ThT, Thioflavin T]
- influence on binding of LRP cl-IV to BSA-AGE [5]: do not interfere

Molecule: Nc1c(/N=N/c2ccc(-c3ccc(/N=N/c4cc(S(=O)(=O)O)c5ccccc5c4N)cc3)cc2)cc(S(=O)(=O)O)c2ccccc12 [Congo red]
- influence on binding of LRP cl-IV to BSA-AGE [5]: inhibit binding of LRP cl-IV to BSA-AGE to a large extent

The next lines start with the values.

- factor XII activation (kallikrein, Chromozym-PK conversion) [3]: stimulate the activation of factor XII
Molecule: CC[C@H](C)[C@H](NC(=O)CNC(=O)[C@@H](NC(=O)[C@H](CC(=O)O)NC(=O)[C@@H](NC(=O)[C@H](CC(=O)O)NC(=O)[C@@H](NC(=O)[C@H](CCC(=O)O)NC(=O)[C@H](CC(C)C)NC(=O)[C@H](CCCNC(=N)N)NC(=O)[C@@H](N)CCCCN)C(C)C)[C@@H](C)CC)[C@@H](C)CC)C(=O)N[C@@H](CCCNC(=N)N)C(=O)N[C@@H](CO)C(=O)O [FP13 K157G] (H-KRLEVDIDIGIRS-OH)

- factor XII activation (kallikrein, Chromozym-PK conversion) [3]: do not activate factor XII
Molecule: mIAPP: non-amyloid control peptide

- affinity of fibronectin F4,5 (detection anti-FLAG HRP) [6]: high affinity
Molecule: reduced and alkylated lysozyme: reduced and alkylated lysozyme
